Binding signal and activity data for 2 substances are collected here from US20240240234.

In data set [1] the test system is LMNB1 (Lamin B1) (Homo sapiens). The conditions noted are these: DiMeLo-seq pA-Hia5 in situ, signal:background mA ratio (IgG control 1.6).
The test system of data set [2] is EcoGII adenine methyltransferase. To be noted: methylation efficiency by DpnII protection; SAM; 0.1% BSA improves.
Data set [3] relates to Hia5 adenine methyltransferase. To be noted: methylation efficiency by DpnII protection; SAM; 0.1% BSA improves.

As for “constitutive lamina-associated domains (cLADs)”, in data set [1], the binding signal was 34.3. For 90-bp duplex with single GATC, the activity in data set [2] and in data set [3] was 100% each time.
